Values quoted from earlier work, collected in publication PMC2900478.

Biological target: GABARAP (Homo sapiens) (UniProt O95166)
Sequence of UniProt O95166 (O95166 1-116): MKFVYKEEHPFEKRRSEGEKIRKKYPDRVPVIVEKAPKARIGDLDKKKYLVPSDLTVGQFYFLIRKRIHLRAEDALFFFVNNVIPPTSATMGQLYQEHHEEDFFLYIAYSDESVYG

## Nix (from UniProt O60238)
  Kd: 100 µM
